Data reported in patent publication US20170015742A1 (published 2017).

Biological target: recombinant human PDGF-BB (human, UniProt P01127 82-190)
Assay: cell-based or functional assay

Sequence of recombinant human PDGF-BB (P01127 82-190 limits assumed): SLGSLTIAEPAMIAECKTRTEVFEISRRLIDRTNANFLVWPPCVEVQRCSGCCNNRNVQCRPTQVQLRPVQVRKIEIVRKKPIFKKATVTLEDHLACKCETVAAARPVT

Binder | NIH-3T3 hPDGF-BB Potency IC50
4G8.3-LS-9E8.4 (g) DVD-Ig (PR-1572106) (bispecific antibody, human IgG1, kappa, L234A L235A) heavy: EVQLVQSGSELKKPGASVKVSCKASGYTFTNYGMYWVRQAPGQGLEWMGWINTETGKPTYADDFKGRFVFSLDTSVSTAYLQISSLKAEDTAVYYCARTNYYYRSYIFYFDYWGQGTMVTVSSASTKGPSVFPLAPEVTLRESGPALVKPTQTLTLTCTFSGFSLSTYGMGVGWIRQPPGKALEWLANIWWDDDKYYNPSLKNRLTISKDTSKNQVVLTMTNMDPVDTATYYCARIESIGTTYSFDYWGQGTMVTVSSASTKGPSVFPLAPSSKSTSGGTAALGCLVKDYFPEPVTVSWNSGALTSGVHTFPAVLQSSGLYSLSSVVTVPSSSLGTQTYICNVNHKPSNTKVDKKVEPKSCDKTHTCPPCPAPEAAGGPSVFLFPPKPKDTLMISRTPEVTCVVVDVSHEDPEVKFNWYVDGVEVHNAKTKPREEQYNSTYRVVSVLTVLHQDWLNGKEYKCKVSNKALPAPIEKTISKAKGQPREPQVYTLPPSREEMTKNQVSLTCLVKGFYPSDIAVEWESNGQPENNYKTTPPVLDSDGSFFLYSKLTVDKSRWQQGNVFSCSVMHEALHNAYTQKSLSLSPGK light: DTVLTQSPATLSLSPGERATLSCRASESVSTHMHWYQQKPGQAPRLLIYGASNLESGVPARFSGSGSGTDFTLTISSLEPEDFAVYFCQQSWNDPFTFGQGTKLEIKRTVAAPEFVLTQSPGTLSLSPGERATLSCERSSGDIGDSYVSWYQQKPGQAPRLVIYADDQRPSGIPDRFSGSGSGTDFTLTISRLEPEDFAVYYCQSYDINIDIVFGGGTKVEIKRTVAAPSVFIFPPSDEQLKSGTASVVCLLNNFYPREAKVQWKVDNALQSGNSQESVTEQDSKDSTYSLSSTLTLSKADYEKHKVYACEVTHQGLSSPVTKSFNRGEC | 0.109 nM
4G8.3-LS-9E8.4E DVD-Ig (PR-1575835) (bispecific antibody, human IgG1, kappa, L234A L235A) heavy: EVQLVQSGSELKKPGASVKVSCKASGYTFTNYGMYWVRQAPGQGLEWMGWINTETGKPTYADDFKGRFVFSLDTSVSTAYLQISSLKAEDTAVYYCARTNYYYRSYIFYFDYWGQGTMVTVSSASTKGPSVFPLAPEVTLRESGPALVKPTQTLTLTCTFSGFSLSTYGMGVGWIRQPPGKALEWLANIWWDDDKYYNPSLKNRLTISKDTSKNQVVLTMTNMDPVDTATYYCARIESIGTTYSFDYWGQGTMVTVSSASTKGPSVFPLAPSSKSTSGGTAALGCLVKDYFPEPVTVSWNSGALTSGVHTFPAVLQSSGLYSLSSVVTVPSSSLGTQTYICNVNHKPSNTKVDKKVEPKSCDKTHTCPPCPAPEAAGGPSVFLFPPKPKDTLMISRTPEVTCVVVDVSHEDPEVKFNWYVDGVEVHNAKTKPREEQYNSTYRVVSVLTVLHQDWLNGKEYKCKVSNKALPAPIEKTISKAKGQPREPQVYTLPPSREEMTKNQVSLTCLVKGFYPSDIAVEWESNGQPENNYKTTPPVLDSDGSFFLYSKLTVDKSRWQQGNVFSCSVMHEALHNAYTQKSLSLSPGK light: DTVLTQSPATLSLSPGERATLSCRASESVSTHMHWYQQKPGQAPRLLIYGASNLESGVPARFSGSGSGTDFTLTISSLEPEDFAVYFCQQSWNDPFTFGQGTKLEIKRTVAAPEFVLTQSPGTLSLSPGERATLSCERSSGDIGESYVSWYQQKPGQAPRLVIYADDQRPSGIPDRFSGSGSGTDFTLTISRLEPEDFAVYYCQSYDINIDIVFGGGTKVEIKRTVAAPSVFIFPPSDEQLKSGTASVVCLLNNFYPREAKVQWKVDNALQSGNSQESVTEQDSKDSTYSLSSTLTLSKADYEKHKVYACEVTHQGLSSPVTKSFNRGEC | 0.176 nM
